Data on 1 substance can be found in PMC3142182.

In the experiment the target is HCV NS5A protein, genotype 1b (hepatitis C virus genotype 1b) (UniProt Q9WMX2). Kind of experiment: co-IP; detergent-solubilized lysates of HEK 293T cells expressing the proteins; immunoprecipitation with mAb against 1b5A, Western blot for NS5B; protocol of Qi et al. [29]; three independent experiments. (In general: A western blot detects proteins with antibodies after separation by electrophoresis.)

With “HCV NS5B (RNA-dependent RNA polymerase), genotype 1b (Con1), full length (from UniProt Q9WMX2 2420-3010) (enzyme)”, the fold more co-precipitated than 1bΔ21 was greater than 2 fold.
